From paper PMC5339707, “ACCORD: an assessment tool to determine the orientation of homodimeric coiled-coils” (Scientific Reports, 2017) come the findings set out here.

Data set [1] has as its target His6-SspB-Mfn1 (660-735) fusion protein (E. coli | M. musculus) (UniProt P0AFZ3). Nature of the data set: SEC-MALS; self-association of His6-SspB-CCD fusion proteins (ACCORD); Superdex 200 10/300 GL, 50 mM Tris pH 8.0, 0.5 mM TCEP, 200 mM NaCl; sample 3-5 mg/ml, 0.5 ml. (In general: In gel filtration, larger molecules generally elute earlier.)
Data set [2] concerns the target His6-SspB-TPM1 (1-98) fusion protein (E. coli | G. gallus) (UniProt P0AFZ3). Described as above.
Data set [3] concerns the molecule itself. The data set is described as above.
Data set [4] concerns the molecule itself. Description: SAXS; MBP fusion proteins in 50 mM Tris pH 8.0, 0.5 mM TCEP, 100 mM NaCl; MBP-NDP52 2.6 mg/ml, MBP-MDV1 9.8 mg/ml; ab initio molecular envelope.
Data set [5] concerns the molecule itself. Nature of the data set: crystal structure; MBP-MDV1 fusion protein, hanging drop, 295 K, 100 mM sodium acetate pH 4.5, 25% PEG 3350, 100 mM CaCl2, 1.3-1.7 M sodium formate; molecular replacement.
Data set [6] concerns the molecule itself. Description: SEC-MALS; self-association of His6-SspB-CCD fusion proteins (ACCORD); Superdex 200 10/300 GL, 50 mM Tris pH 8.0, 0.5 mM TCEP, 200 mM NaCl; sample 3-5 mg/ml, 0.5 ml. The source holds these as a separate data set.

“And” between values parts separate entries of the source, which are not always exact repeats. Identical values can stand only once. Like-named read-outs stand apart in the source and are kept apart here.

Consider “His6-SspB-Mfn1 (660-735) fusion protein (from UniProt P0AFZ3 1-165; Q811U4 660-735)”, for which the stoichiometry N (in general, the number of molecules, sites or subunits per partner or assembly) in data set [1] stood at 4.

“His6-SspB-TPM1 (1-98) fusion protein (from UniProt P0AFZ3 1-165; P04268 1-98)” displayed a stoichiometry N in data set [2] of 2.

B1: His6-SspB-APC (2-55) fusion protein (other, E. coli | H. sapiens, UniProt P0AFZ3 1-165, looked up)
chain: MDLSQLTPRRPYLLRAFYEWLLDNQLTPHLVVDVTLPGVQVPMEYARDGQIVLNIAPRAVGNLELANDEVRFNARFGGIPRQVSVPLAAVLAIYARENGAGTMFEPEAAYDEDTSIMNDEEASADNETVMSVIDGDKPDHDDDTHPDDEPPQPPRGGRPALRVVKAAASYDQLLKQVEALKMENSNLRQELEDNSNHLTKLETEASNMKEVLKQLQGSI
notes: Stringent starvation protein B (SspB), E. coli, full length, residues 1-165 (M1-K165), amplified from genomic DNA; Adenomatous polyposis coli protein (APC), human, coiled-coil domain, residues 2-55 (A2-I55); CCD ligated behind SspB in the His6-SspB vector (BamHI at the 5' end); vector holds TEV and thrombin cleavage sites; source: E. coli BL21(DE3), purified (HisTrap, Superdex 200); not shown: …
Consider B1, for which, in data set [3], the “stoichiometry N” value was found to be 2.

B2: His6-SspB-Ndel1 (8-99) fusion protein (other, E. coli | R. norvegicus, UniProt P0AFZ3 1-165, looked up)
chain: MDLSQLTPRRPYLLRAFYEWLLDNQLTPHLVVDVTLPGVQVPMEYARDGQIVLNIAPRAVGNLELANDEVRFNARFGGIPRQVSVPLAAVLAIYARENGAGTMFEPEAAYDEDTSIMNDEEASADNETVMSVIDGDKPDHDDDTHPDDEPPQPPRGGRPALRVVKDFSSLKEETAYWKELSLKYKQSFQEARDELVEFQEGSRELEAELEAQLVQAEQRNRDLQADNQRLKYEVEALKEKLEHQYAQSYKQVSVLED
notes: Stringent starvation protein B (SspB), E. coli, full length, residues 1-165 (M1-K165), amplified from genomic DNA; Major peak a dimer; source: E. coli BL21(DE3), purified (HisTrap, Superdex 200); not shown: His6, N-terminal, kept
Take B2: in data set [3], the “stoichiometry N” value was determined as 2.

B3: His6-SspB-SCOC (78-159) fusion protein (other, E. coli | H. sapiens, UniProt P0AFZ3 1-165, looked up)
chain: MDLSQLTPRRPYLLRAFYEWLLDNQLTPHLVVDVTLPGVQVPMEYARDGQIVLNIAPRAVGNLELANDEVRFNARFGGIPRQVSVPLAAVLAIYARENGAGTMFEPEAAYDEDTSIMNDEEASADNETVMSVIDGDKPDHDDDTHPDDEPPQPPRGGRPALRVVKMMNADMDAVDAENQVELEEKTRLINQVLELQHTLEDLSARVDAVKEENLKLKSENQVLGQYIENLMSASSVFQTTDTKSKRK
notes: Stringent starvation protein B (SspB), E. coli, full length, residues 1-165 (M1-K165), amplified from genomic DNA; Short coiled-coil protein (SCOC), human, coiled-coil domain, residues 78-159 (M78-K159); CCD ligated behind SspB in the His6-SspB vector (BamHI at the 5' end); vector holds TEV and thrombin cleavage sites; source: E. coli BL21(DE3), purified (HisTrap, Superdex 200); not shown: His6, …
Regarding B3, the “stoichiometry N” value in data set [3] was determined as 2.

B4: MBP-NDP52 (197-270) fusion protein (domain or fragment, H. sapiens, UniProt Q13137 197-270, looked up)
chain: KVKEQKDYWETELLQLKEQNQKMSSENEKMGIRVDQLQAQLSTQEKEMEKLVQGDQDKTEQLEQLKKENDHLFL
notes: Modified pMAL vector; source: E. coli BL21(DE3), purified (amylose resin, Q-FF, Superdex 200)
Consider B4, for which, in data set [4], the binding result is reported as “binds”.

B5: His6-SspB-MDV1 (231-300) fusion protein (other, E. coli | S. cerevisiae, UniProt P0AFZ3 1-165, looked up)
chain: MDLSQLTPRRPYLLRAFYEWLLDNQLTPHLVVDVTLPGVQVPMEYARDGQIVLNIAPRAVGNLELANDEVRFNARFGGIPRQVSVPLAAVLAIYARENGAGTMFEPEAAYDEDTSIMNDEEASADNETVMSVIDGDKPDHDDDTHPDDEPPQPPRGGRPALRVVKQTLVNSLEFLNIQKNSTLSEIRDIEVEVENLRQKKEKLLGKIANIEQNQLLLEDNLKQIDDRLDFLEEYG
notes: Stringent starvation protein B (SspB), E. coli, full length, residues 1-165 (M1-K165), amplified from genomic DNA; Mitochondrial division protein 1 (MDV1), S. cerevisiae, coiled-coil domain, residues 231-300 (Q231-G300); Seen as a tetramer (main fraction) and a dimer (significant proportion); source: E. coli BL21(DE3), purified (HisTrap, Superdex 200); not shown: His6, N-terminal, kept
On to B5, for which the “stoichiometry N” value in data set [3] was 4 and 2.

B6: His6-SspB-Atg16 (58-130) fusion protein (other, E. coli | S. cerevisiae, UniProt P0AFZ3 1-165, looked up)
chain: MDLSQLTPRRPYLLRAFYEWLLDNQLTPHLVVDVTLPGVQVPMEYARDGQIVLNIAPRAVGNLELANDEVRFNARFGGIPRQVSVPLAAVLAIYARENGAGTMFEPEAAYDEDTSIMNDEEASADNETVMSVIDGDKPDHDDDTHPDDEPPQPPRGGRPALRVVKVSHDDALLNTLAILQKELKSKEQEIRRLKEVIALKNKNTERLNDELISGTIENNVLQQKLSDLKKEHSQLVAR
notes: Stringent starvation protein B (SspB), E. coli, full length, residues 1-165 (M1-K165), amplified from genomic DNA; Autophagy protein 16 (Atg16), S. cerevisiae, coiled-coil domain, residues 58-130 (V58-R130); source: E. coli BL21(DE3), purified (HisTrap, Superdex 200); not shown: His6, N-terminal, kept
For B6, the “stoichiometry N” value in data set [3] turned out to be 2.

B7: MBP-MDV1 (231-300) fusion protein (domain or fragment, S. cerevisiae, UniProt P47025 231-300, looked up)
chain: QTLVNSLEFLNIQKNSTLSEIRDIEVEVENLRQKKEKLLGKIANIEQNQLLLEDNLKQIDDRLDFLEEYG
notes: Mitochondrial division protein 1 (MDV1), S. cerevisiae, coiled-coil domain, residues 231-300; Modified pMAL vector; the whole chain is in PDB 5JST; source: E. coli BL21(DE3), purified (amylose resin, Q-FF, Superdex 200)
In the case of B7, the binding result in data set [5] was “binds”.

B8: His6-SspB-LRRFIP1 (162-249) fusion protein (other, E. coli | H. sapiens, UniProt P0AFZ3 1-165, looked up)
chain: MDLSQLTPRRPYLLRAFYEWLLDNQLTPHLVVDVTLPGVQVPMEYARDGQIVLNIAPRAVGNLELANDEVRFNARFGGIPRQVSVPLAAVLAIYARENGAGTMFEPEAAYDEDTSIMNDEEASADNETVMSVIDGDKPDHDDDTHPDDEPPQPPRGGRPALRVVKDSLAEVEEKYKKAMVSNAQLDNEKTNFMYQVDTLKDMLLELEEQLAESRRQYEEKNKEFEREKHAHSILQFQFAEVKEALKQREEMLE
notes: Stringent starvation protein B (SspB), E. coli, full length, residues 1-165 (M1-K165), amplified from genomic DNA; CCD ligated behind SspB in the His6-SspB vector (BamHI at the 5' end); vector holds TEV and thrombin cleavage sites; source: E. coli BL21(DE3), purified (HisTrap, Superdex 200); not shown: His6, N-terminal, kept
Consider B8, for which the “stoichiometry N” value in data set [3] was determined as 2.

B9: His6-SspB-TRIM25 (194-356) fusion protein (other, E. coli | H. sapiens, UniProt P0AFZ3 1-165, looked up)
chain: MDLSQLTPRRPYLLRAFYEWLLDNQLTPHLVVDVTLPGVQVPMEYARDGQIVLNIAPRAVGNLELANDEVRFNARFGGIPRQVSVPLAAVLAIYARENGAGTMFEPEAAYDEDTSIMNDEEASADNETVMSVIDGDKPDHDDDTHPDDEPPQPPRGGRPALRVVKASADLEATLRHKLTVMYSQINGASRALDDVRNRQQDVRMTANRKVEQLQQEYTEMKALLDASETTSTRKIKEEEKRVNSKFDTIYQILLKKKSEIQTLKEEIEQSLTKRDEFEFLEKASKLRGISTKPVYIPEVELNHKLIKGIHQSTIDLKNELKQCIGRLQ
notes: Stringent starvation protein B (SspB), E. coli, full length, residues 1-165 (M1-K165), amplified from genomic DNA; source: E. coli BL21(DE3), purified (HisTrap, Superdex 200); not shown: His6, N-terminal, kept
Take B9: the “stoichiometry N” value in data set [3] was found to be 4.

B10: His6-SspB-NDP52 (141-334) fusion protein (other, E. coli | H. sapiens, UniProt P0AFZ3 1-165, looked up)
chain: MDLSQLTPRRPYLLRAFYEWLLDNQLTPHLVVDVTLPGVQVPMEYARDGQIVLNIAPRAVGNLELANDEVRFNARFGGIPRQVSVPLAAVLAIYARENGAGTMFEPEAAYDEDTSIMNDEEASADNETVMSVIDGDKPDHDDDTHPDDEPPQPPRGGRPALRVVKEVEEIEQHNKELCKENQELKDSCISLQKQNSDMQAELQKKQEELETLQSINKKLELKVKEQKDYWETELLQLKEQNQKMSSENEKMGIRVDQLQAQLSTQEKEMEKLVQGDQDKTEQLEQLKKENDHLFLSLTEQRKDQKKLEQTVEQMKQNETTAMKKQQELMDENFDLSKRLSENEIICNALQRQKERLEGE
notes: as for B9
In the case of B10, the “stoichiometry N” value in data set [3] worked out at 2.

B11: His6-SspB-ROCK1 (535-709) fusion protein (other, E. coli | H. sapiens, UniProt P0AFZ3 1-165, looked up)
chain: MDLSQLTPRRPYLLRAFYEWLLDNQLTPHLVVDVTLPGVQVPMEYARDGQIVLNIAPRAVGNLELANDEVRFNARFGGIPRQVSVPLAAVLAIYARENGAGTMFEPEAAYDEDTSIMNDEEASADNETVMSVIDGDKPDHDDDTHPDDEPPQPPRGGRPALRVVKLANEKLSQLQKQLEEANDLLRTESDTAVRLRKSHTEMSKSISQLESLNRELQERNRILENSKSQTDKDYYQLQAILEAERRDRGHDSEMIGDLQARITSLQEEVKHLKHNLEKVEGERKEAQDMLNHSEKEKNNLEIDLNYKLKSLQQRLEQEVNEHKVTKARLTDKHQSIEEAK
notes: Stringent starvation protein B (SspB), E. coli, full length, residues 1-165 (M1-K165), amplified from genomic DNA; Rho-associated coiled-coil containing protein kinase 1 (ROCK1), human, coiled-coil domain, residues 535-709 (L535-K709); CCD ligated behind SspB in the His6-SspB vector (BamHI at the 5' end); vector holds TEV and thrombin cleavage sites; source: E. coli BL21(DE3), purified (HisTrap, …)
In the case of B11, the “stoichiometry N” value in data set [3] came out at 2.

B12: His6-SspB-MYO10 (883-933) fusion protein (other, E. coli | human, UniProt P0AFZ3 1-165, looked up)
chain: MDLSQLTPRRPYLLRAFYEWLLDNQLTPHLVVDVTLPGVQVPMEYARDGQIVLNIAPRAVGNLELANDEVRFNARFGGIPRQVSVPLAAVLAIYARENGAGTMFEPEAAYDEDTSIMNDEEASADNETVMSVIDGDKPDHDDDTHPDDEPPQPPRGGRPALRVVKENKQVEEILRLEKEIEDLQRMKEQQELSLTEASLQKLQERRDQELRRLEEE
notes: Stringent starvation protein B (SspB), E. coli, full length, residues 1-165 (M1-K165), amplified from genomic DNA; also called human MYO10 CC; source: E. coli BL21(DE3), purified (HisTrap, Superdex 200)
As to B12, in data set [6], the “stoichiometry N” value amounted to 2.
